In patent US20080299666A1, “Novel Peptide-Based Borono-Lectin (PBL) Sensors” (University of South Carolina, priority 2007, published 2008):

Tests used:
[1] = Non-specific binding and BSA blocking: FITC-BSA and FITC-Ovalbumin on PBL library, bead fluorescence; details: for Mean of luminosity of fluorescent beads: exposure time 832 ms; for Binding to PBL library by bead fluorescence (non-specific vs specific): exposure time 62.4 ms
Description: On the other hand, we used the PBL library to bind FITC labeled bovine serum album (BSA) to observe non-specific binding. There should not be binding between them because there are no carbohydrates on BSA. The experimental results were compared in FIG. 2.14. […] That means the amount of non-specific binding is less than specific binding. In order to see whether the blocking PBL library with BSA is useful to prevent the non-specific binding, we compared the binding samples with and without blocking with BSA. Two fluorescently labeled proteins were used: FITC-BSA and FITC-Ovalbumin. In FIG. 2.14, it is not easy to differentiate the images 2 and 3 under 62.4 ms exposure time. We increased the exposure time to 832 ms and compared quantitatively the luminosity of fluorescent beads (with red circles). The mean of luminosity for image 2 is 63.57 and 38.84 for image 3; while for image 4 and 5, they are 38.63 and 19.86 respectively. […] In one experiment (Table 2.2, row 1 and 4), we counted the rate of hits which decreased when the PBLs were blocked with BSA.

[2] = Binding of control proteins to the PBL library; details: fluorescently labeled protein
Experimental: To minimize non-specific binding, the resin was pre-incubated with 1% BSA. When binding glycoproteins to the library (about 10 min. to 12 hr—about 1 ng/mL to 1 mg/mL), 1% BSA and 10% glycerol were also included. The resin was washed extensively with phosphate buffered saline (PBS) after binding.

[3] = binding with fructose at pH=8; 480 nm to 450 nm; cited from earlier work
[4] = Detection limit of fluorescently-labeled glycoproteins bound to PBL library beads (fluorescence microscopy); format: binding
Experimental: To determine how low the concentration is at which we can still differentiate the fluorescence of the beads, the PBL library beads were blocked with 1% BSA and then incubated with varying concentration of FITC-labeled ovalbumin, PSM and CEA and CR-labeled ovalbumin and PSM with the addition of 10% (v/v) glycerol overnight. After washing away unbound glycoproteins, fluorescence images were obtained. The PBL library without addition of glycoprotein was used as a control sample. Here, the limit of glycoprotein detection is defined as the lowest concentration of fluorescently-labeled glycoproteins at which their binding to PBL library beads can give enough fluorescence intensity for visual observation. However, the concentration limits are also exposure time dependent, e.g., for FITC-Ovalbumin, and FITC-BSM, the lowest concentrations for visual observation of fluorescence under exposure time 252 ms are about 10 μg/ml, but if the exposure time was increased, the fluorescence can be observed even under dilute concentration. For instance, for FITC-Ovalbumin, the detection limit will lower to about 0.1 μg/ml when exposure time is increased to 4.69 s (FIGS. 2.15, 2.16 and Table 2.3). For FITC-CEA, if observed under 252 ms, the fluorescence of beads is strong. Its concentration limit is about 0.1 (μg/ml) under this exposure time (FIG. 2.17). Stronger fluorescence from FITC-CEA if under the same exposure time as others may be due to CEA having more terminal glycans compared to others.
For CR-glycoproteins, since the PBL library itself is lightly fluorescent under excitation wavelength=510-560 nm, in order to avoid high background interference, we chose comparatively lower exposure time (62.4 ms) when we took the images (FIGS. 2.18 and 2.19). Under this exposure time, the concentration limits for CR-Ovalbumin and CR-PSM were 1 μg/ml (Table 2.3). If we mention the concentration limit of screening, we mention exposure time because the concentration limit is exposure dependent.
FITC-glycoprotein or CR-glycoprotein solution was added into the borono-peptide beads and tumbled overnight at room temperature. The beads were then washed by PBS buffer (0.1M, pH=7.3 150 mM NaCl) (for CR-glycoproteins, beads were washed with methanol first and then washed with PBS buffer) and beads were observed under fluorescence microscope (Nikon, eclipse, E600) and pictures were taken.

[5] = PBL library response to FITC-tagged CEA at varying concentrations; format: binding
Description: Higher sensitivity is achieved using longer integration times on the camera to image the beads, up to 25 ms to obtain the 10 pg/mL image.

[6] = PBL library blocked with BSA (images 3 and 5)
[7] = without BSA blocking (images 2 and 4)

In the case of “FITC-BSA: FITC labeled bovine serum albumin, not a glycoprotein [reference compound]”, the “Mean of luminosity of fluorescent beads” value [1, 6] is reported as 38.84, the “Binding to PBL library by bead fluorescence (non-specific vs specific)” value [1] is reported as “non-specific binding is minimal” and the “Mean of luminosity of fluorescent beads” value [1, 7] is reported as 63.57. For the same molecule, the “Binding to the PBL library (qualitative)” value [2] was “no appreciable binding”.

For CN(C)c1ccc(/C=C/c2ccc(B(O)O)cc2)cc1 [DSTBA, 4′-Dimethylaminostilbene-4-boronic acid], the “Blue shift of the emission” value [3] is given as 30 nm.

B1: FITC-Oval: conjugate of fluorescein isothiocyanate and chicken ovalbumin (conjugate, UniProt P01012 2-386, looked up)
Ovalbumin: GSIGAASMEFCFDVFKELKVHHANENIFYCPIAIMSALAMVYLGAKDSTRTQINKVVRFDKLPGFGDSIEAQCGTSVNVHSSLRDILNQITKPNDVYSFSLASRLYAEERYPILPEYLQCVKELYRGGLEPINFQTAADQARELINSWVESQTNGIIRNVLQPSSVDSQTAMVLVNAIVFKGLWEKAFKDEDTQAMPFRVTEQESKPVQMMYQIGLFRVASMASEKMKILELPFASGTMSMLVLLPDEVSGLEQLESIINFEKLTEWTSSNVMEERKIKVYLPRMKMEEKYNLTSVLMAMGITDVFSSSANLSGISSAESLKISQAVHAAHAEINEAGREVVGSAEAGVDAASVSEEFRADHPFLFCIKHIATNAVLFFGRCVSP
modifications: FITC label
notes: conjugate of fluorescein isothiocyanate and chicken ovalbumin
In the case of B1, the “Concentration limit (detection limit)” value ([4]; FITC label, exposure time 4.69 s) is reported as “about 0.1 μg/ml”, the “Concentration limit (detection limit)” value ([4]; FITC label, exposure time 252 ms, beads blocked with 1% BSA, 10% (v/v) glycerol, overnight) is reported as 10 µg/mL and the “Concentration limit (detection limit)” value ([4]; FITC label, exposure time 252 ms, beads blocked with 1% BSA, 10% (v/v) glycerol, overnight, listed as FITC-Ovalbumin) is reported as “about 10 μg/ml”. For the same molecule, the “Mean of luminosity of fluorescent beads” value [1, 6] was 19.86, the “Binding to PBL library by bead fluorescence (non-specific vs specific)” value [1] was “fluorescence can be observed clearly” and the “Mean of luminosity of fluorescent beads” value [1, 7] was 38.63.

B2: CR-Oval: ovalbumin labeled with carboxyrhodamine (conjugate, UniProt P01012 2-386, looked up)
Ovalbumin: B1 Ovalbumin
modifications: carboxyrhodamine label
notes: ovalbumin labeled with carboxyrhodamine
With B2 the “Concentration limit (detection limit)” value ([4]; CR label, exposure time 62.4 ms, beads blocked with 1% BSA, 10% (v/v) glycerol, overnight) was 1 µg/mL.

B3: FITC-CEA: Carcinoembryonic antigen labeled with FITC (conjugate, UniProt P06731 35-685, looked up)
Cell adhesion molecule CEACAM5: KLTIESTPFNVAEGKEVLLLVHNLPQHLFGYSWYKGERVDGNRQIIGYVIGTQQATPGPAYSGREIIYPNASLLIQNIIQNDTGFYTLHVIKSDLVNEEATGQFRVYPELPKPSISSNNSKPVEDKDAVAFTCEPETQDATYLWWVNNQSLPVSPRLQLSNGNRTLTLFNVTRNDTASYKCETQNPVSARRSDSVILNVLYGPDAPTISPLNTSYRSGENLNLSCHAASNPPAQYSWFVNGTFQQSTQELFIPNITVNNSGSYTCQAHNSDTGLNRTTVTTITVYAEPPKPFITSNNSNPVEDEDAVALTCEPEIQNTTYLWWVNNQSLPVSPRLQLSNDNRTLTLLSVTRNDVGPYECGIQNELSVDHSDPVILNVLYGPDDPTISPSYTYYRPGVNLSLSCHAASNPPAQYSWLIDGNIQQHTQELFISNITEKNSGLYTCQANNSASGHSRTTVKTITVSAELPKPSISSNNSKPVEDKDAVAFTCEPEAQNTTYLWWVNGQSLPVSPRLQLSNGNRTLTLFNVTRNDARAYVCGIQNSVSANRSDPVTLDVLYGPDTPIISPPDSSYLSGANLNLSCHSASNPSPQYSWRINGIPQQHTQVLFIAKITPNNNGTYACFVSNLATGRNNSIVKSITVSASGTSPGLSA
modifications: FITC label
In the case of B3, the “PBL library response (microscope image)” value ([5]; 10 pg/mL CEA, integration times up to 25 ms) is reported as “responding” and the “PBL library response (microscope image)” value ([5]; 10 ng/mL CEA) is reported as “responding”.
